According to patent publication US6602687B1, “DNA encoding human ciliary neurotrophic factor and method for producing the protein encoded thereby” (Regeneron Pharmaceuticals, Inc., priority 1989, dated 2003):

How the values were obtained:
[1] = system: E8 chick ciliary ganglion neurons; experiment: Survival of dissociated E8 chick ciliary ganglion neurons; assay type: cell-based; conditions: saturating levels of recombinant human CNTF; 48 hr
Excerpt: Ciliary neurotrophic factor activity may be evaluated using any CNTF-sensitive in vivo or in vitro system known in the art. For example, and not by way of limitation, in vitro systems have been developed which measure CNTF activity by quantitating 24-hour survival of embryonic (E8) chick ciliary ganglion (CG) neurons in monolayer cultures.
For example, ciliary ganglia may be collected from E8 chick embryos, dissociated (yielding approximately 20,000 cells per ganglion) and then diluted in HEBM medium containing 20 percent horse serum as described in Varon et al. (1979, Brain Res. 173:29-45). About fifty microliters of cell suspension containing neurons (2,000 cells) may then be seeded into microliter dishes and putative CNTF activity may be added. Culture plates may then be maintained at 37° C. in 5% CO2 for 24 hours, after which the cultures may be fixed by the addition of 200 μl 2 per cent glutaraldehyde in HEBM medium, and the number of surviving neurons may be determined visually by direct count under phase contrast microscopy.
Chick embryo ciliary ganglion cultures were created and maintained according to the method set forth in (Hughes et al., 1988, Nature 335 : 70-73).
Biological activity of recombinant CNTF was assayed on explants of chick embryo dorsal root ganglia (DRG) and dissociated cultures of ciliary ganglion (CG) neurons as described in Lindsay and Rohrer (1985, Devel. Biol 112:30-48). Briefly, DRG were dissected from chick embryos of 10 days incubation (E10) and 5-6 ganglia were explanted in 1 ml of a collagen gel matrix in 35 mm tissue culture dishes. After the gel had set, 1 ml of tissue culture growth medium F14 (Imperial Labs., U.K.) supplemented with 5% heat-inactivated horse serum (GIBCO) was added before adding human CNTF (1-20 l) to a final concentration of 100 pg to 100 ng/ml. CG were dissected from E8 chick embryos and incubated for 30 min in 0.25% trypsin (Worthington) in calcium- and magnesium-free phosphate buffered saline. The ganglia were then washed three times in F14 medium containing 5% horse serum before being dissociated to a single cell suspension by trituration through the bore of a Pasteur pipette. Enrichment for CG neurons was achieved by plating the cell suspension for 3.5 hr in a 60 mm dish, during which non-neuronal cells (fibroblasts and Schwann cells) attached firmly to the plastic while phase-bright neurons remained in suspension. The purified neurons were plated on polyornithine-laminin-coated 35 mm culture dishes at 8,000-10,000 neurons/dish. In explant cultures CNTF activity was determined by assessing the extent of fiber outgrowth in treated cultures compared to controls. Fiber outgrowth was scored on a scale of 0 to 5+, by comparing cultures to photographs of a dose-response of explanted DRG and NGF. In dissociated CG neuron cultures, CNTF activity was determined by counting at 48 hr the percentage of process-bearing neurons in control and CNTF-treated cultures. In all cases results were derived from triplicate cultures.

[2] = system: metrizamide gradient purified ventral spinal cord motorneurons; experiment: CAT activity in metrizamide gradient-purified motorneurons; assay type: cell-based, rat; conditions: CNTF 10 ng/ml; purified motorneuron cultures
Protocol: Cultures were harvested by lysing the cells in a 20 mM Tris-HCl (pH 8.6) solution containing 0.1% Triton X-100. Two microliters of the cell lysate was removed and assayed for CAT activity according to the micro-Fonnum procedure (Fonnum, 1975, J. Neurochem. 24:407-409). The final substrate composition consisted of 0.2 mM [1-^14C] Acetyl-CoA (NEN, 54.4 mCi/mmol), 300 mM NaCl, 8 mM choline bromide, 20 mM EDTA, and 0.1 mM neostigmine in 50 mM NaH2PO4 (pH 7.4) buffer. At these enzyme and substrate concentrations, the enzymatic reaction was linear for 90-120 minutes. The specificity of the induction for CAT was tested by the addition of a specific inhibitor of CAT activity, N-hydroxyethyl-4-(1-napthylvinyl) pyridium (HNP), during the assay (White and Cavallito, 1970, J. Neurochem. 17:1579-1589).
The fractionation procedure (Dohrman et al., 1986, Dev. Biol. 118:209-221) was a modification of the method described by Schnaar and Schaffner (1981, J. Neurosci. 1:204-207). Metrizamide was dissolved in F12:MEM(1:1) medium, and a step gradient consisting of 3 ml 17% metrizamide, 3 ml 12% metrizamide and 3 ml 8% metrizamide was prepared. The following steps were all carried out at 4° C. The ventral horn cell suspension (2.5 ml) obtained as described previously was layered over the step gradient, the tube was centrifuged at 2500×g for 20 minutes using a swing-out rotor. […]

[3] = system: E18-19 rat hippocampal neurons; experiment: High affinity GABA uptake in hippocampal cultures; assay type: cell-based
Protocol: Hippocampi were dissected from E18-19 rat embryos of Sprague-Dawley rats, and collected in F10 medium. The tissues were minced, rinsed twice with F10 medium (Gibco) and trypsinized with 0.25% trypsin (Gibco) for 20 minutes at 37° C. Trypsin was inactivated by the addition of a serum-containing medium composed of minimal essential medium (MEM) supplemented with fetal calf serum (FCS, 10%), glutamine (2 mM), penicillin (25 U/ml) and streptomycin (25 ug/ml). Dissociated cells obtained by gentle trituration were collected and centrifuged at low speed (500 rpm) for 30 seconds. The centrifugation was repeated twice, and the cell pellets were then resuspended in serum-containing medium. The cells were then plated onto 6 mm wells or 35 mm dishes that were coated with polyornithine (10 ug/ml) and laminin (10 ug/ml). In most of the experiments, the cells were plated at a low density of approximately 71,000 cells/cm^2. Five to six hours following the plating of cells, medium was changed to a serum-free medium containing 1% N3 and penicillin-streptomycin (25 units/ml and 25 ug/ml, respectively), at which time CNTF was added. Medium was changed every three to four days, with re-addition of the factor.
To obtain neuron-enriched cultures, cytosine arabinoside (Ara-C, 0.3 uM) was added for a period of 24 hours. Under such condition, the hippocampal cultures contain approximately 5-10% glial cells, as assessed by GFAP immunohistochemistry.
Uptake of GABA into non-neuronal cells was inhibited by the additional of 2 mM B-alanine, whereas uptake specific for neurons is verified by inhibition with nipecotic acid at 1 mM.
The CNTF used in all assays was recombinant rat CNTF, expressed and purified as described in Example Section 12 supra.

B1: CNTF: ciliary neurotrophic factor; recombinant rat CNTF in Sections 10, 15, 17, purified rat sciatic nerve CNTF in Section 11; see endpoint conditions (protein, UniProt P20294 1-200, looked up)
Ciliary neurotrophic factor: MAFAEQTPLTLHRRDLCSRSIWLARKIRSDLTALMESYVKHQGLNKNINLDSVDGVPVASTDRWSEMTEAERLQENLQAYRTFQGMLTKLLEDQRVHFTPTEGDFHQAIHTLMLQVSAFAYQLEELMVLLEQKIPENEADGMPATVGDGGLFEKKLWGLKVLQELSQWTVRSIHDLRVISSHQMGISALESHYGAKDKQM
In the case of B1, the “neurons surviving and elaborating long neurites” value [1] is reported as 60-70%, the “increase in CAT activity versus untreated cultures” value [2] is reported as 10 fold and the “increase in Gaba uptake at low plating density” value ([3]; 71,000 cells/cm2, CNTF 10 ng/ml, 8 days) is reported as “approximately 2.6 fold”. The “increase in Gaba uptake at higher plating density” value ([3]; 143,000 cells/cm2, CNTF 10 ng/ml) was “failed to induce a significant increase”, the “concentration of CNTF required for a maximal response in GABA uptake” value ([3]; AraC-treated neuron-enriched cultures) was 0.03 ng/mL and the “increase in Gaba uptake, CNTF added on the third day and cells treated for 8 days” value ([3]; CNTF 10 ng/ml) was “failed to induce increase in Gaba uptake”. For the same molecule, the “CNTF-induced increase in GABA uptake, addition delayed by one day” value ([3]; CNTF 10 ng/ml, assayed 7 days later) was “lowered”, the “CNTF-induced increase in GABA uptake, addition on the third day after plating” value ([3]; CNTF 10 ng/ml, uptake on the eighth day in culture) was “no longer produced an increase in GABA uptake” and the “increase in Gaba uptake versus untreated controls in AraC-treated cultures” value ([3]; neuron-enriched cultures, cytosine arabinoside 0.3 uM for 24 h, 8 days) was 2.4 fold. The “concentration of CNTF required for a maximal response in GABA uptake” value ([3]; neuron-glia mixed cultures (−AraC)) was 0.1 ng/mL, the “maximal increase in specific neuronal GABA uptake (dose response)” value ([3]; recombinant rat CNTF 0.1 ng/ml for 8 days) was “approximately 3 fold” and the “maximal increase in specific neuronal GABA uptake versus untreated controls” value ([3]; recombinant rat CNTF 10 ng/ml, 8 days after addition, 71,000 cells/cm2) was “approximately 4 fold”. For the same molecule, the “concentration at which specific neuronal GABA uptake was increased” value ([3]; recombinant rat CNTF, 8 days) was 0.01 ng/mL.
